Source: patent publication US11739161B2, “Methods for treating and diagnosing prostate cancer” (Tufts Medical Center, Inc., priority 2017, dated 2023)

How the values were obtained:
Assay type in all cases: cell-based, human
[1] = tested on: AKT and S6 phosphorylation in DU145 cells; experiment: RNASE4-induced phosphorylation of AKT and S6 (immunoblot); settings: serum-starved DU145, RNASE4 1 μg/ml, time course
Procedure: (§1) FIGS. 10A-E. RNASE4 induces prostate cancer cell proliferation and phosphorylation of AKT and S6. (A and B) Exogenous RNASE4 (1 μg/ml) stimulates cell proliferation (A) and cell cycle progression (B) of DU145 cells cultured in the presence of 2% FBS. Cell numbers were determined by MTT assay. Cell cycle status was determined by flow cytometry after 24 hour incubation with RNASE4. (C) Time course of AKT and S6 phosphorylation of serum-starved DU145 cells by RNASE4 (1 μg/ml). Left panels, immunoblots; right panels, quantification of p-AKT and p-S6 normalized to total AKT and S6 by Image J analysis. […] Cells were pre-incubated with the inhibitors at the indicated concentrations for 1 hour prior to be stimulated by 1 μg/ml of RNASE4 for 5 minutes. Top panels, immunoblots; bottom panels, Image J quantification of p-AKT and p-S6 normalized to total AKT and S6. (E) Effect of AKT inhibitor MK-2206, PI3K inhibitors Wortmannin and LY294002, and mTOR inhibitor Rapamycin on RNASE4-induced cell proliferation. DU145 cells were serum-starved overnight, incubated with the inhibitors for 1 hour, and then treated with RNASE4 (1 μg/ml) for three days. Cell numbers were determined by MTT assay. Data shown are from a representative experiments in triplicates of 3 independent repeats. Error bars indicate SEM. **P≤0.01, by unpaired two-tailed Student's t test.
FIGS. 12A-F. RNASE4 induces AXL phosphorylation. (A) Human phospho-receptor tyrosine kinase (RTK) antibody array analysis. Serum-starved DU145 cells were treated with or without 1 μg/ml of RNASE4 for 5 minutes. A total of 1.5 mg cell lysate protein was blotted on each array membrane. […] (B) Immunoblot analysis of RNASE4-stimulated AXL phosphorylation. DU145 cells were serum-starved overnight and treated with 1 μg/ml of RNASE4 for the indicated time. Cell lysates were analyzed by antibodies against total AXL and phospho-AXL, with β-actin as the loading control. Left panels, immunoblots; right panel, Image J quantification of p-AXL normalized to total AXL. (C) Immunoblot analysis of phospho-AXL in response to stimulation by ANG, RNase A, and RNASE4. DU145 cells were serum-starved overnight and treated with 1 μg/ml of ANG, RNase A, or RNASE4 for 15 minutes. Left panels, immunoblots; right panel, quantification. (D) Effect of AXL inhibitor R428 on RNASE4-induced cell proliferation. Serum-starved DU145 cells were incubated with 1 or 3 μM R428 for 3 hours and then stimulated by 1 μg/ml of RNASE4 for 3 days. Cell numbers were determined by MTT assay. Data shown are means±SEM of a representative experiment (in triplicates) of 3 independent repeats. **P≤0.01 and ***P≤0.001, by unpaired two-tailed Student's t test. (E) Effect of AXL inhibitor R428 on RNASE4-induced AKT and P6 phosphorylation. Serum-starved DU145 cells were incubated with 1 or 3 μM R428 for 3 hours and then stimulated by 1 μg/ml of RNASE4 for 5 minutes. Cell lysates were analyzed for AKT and P6 phosphorylation by immunoblotting. Top panels, immunoblots; bottom panels, quantification of phospho-AKT and phospho-S6 by Image J analyses normalized to total AKT and P6, respectively. (F) Schematic presentation of proposed involvement of AXL in RNASE4-stimulated cellular events.

[2] = tested on: DU145 cells; experiment: RNASE4-induced cell proliferation (MTT assay); settings: exogenous RNASE4 1 μg/ml, DU145, 2% FBS
Procedure: as §1
FIGS. 12A-F. RNASE4 induces AXL phosphorylation. (A) Human phospho-receptor tyrosine kinase (RTK) antibody array analysis. Serum-starved DU145 cells were treated with or without 1 μg/ml of RNASE4 for 5 minutes. […] Cell lysates were analyzed by antibodies against total AXL and phospho-AXL, with β-actin as the loading control. Left panels, immunoblots; right panel, Image J quantification of p-AXL normalized to total AXL. […] Left panels, immunoblots; right panel, quantification. […] Cell numbers were determined by MTT assay. […] Cell lysates were analyzed for AKT and P6 phosphorylation by immunoblotting. Top panels, immunoblots; bottom panels, quantification of phospho-AKT and phospho-S6 by Image J analyses normalized to total AKT and P6, respectively. […]

[3] = tested on: PC-3 cells; experiment: RNASE4 knockdown, colony formation in soft agar; settings: PC-3, exogenous RNASE4 1 μg/ml, 14 days
From the text: FIGS. 13A-D. RNASE4 knockdown reduces prostate cancer cell proliferation in vitro and colony formation in soft agar. (A) Immunoblot analysis of RNASE4 in PC-3 cells stably transfected with shControl, shRNASE4-1, and shRNASE4-2. (B) qRT-PCR analysis of RNASE4 mRNA normalized to GAPDH in PC-3 cells stably transfected with shControl, shRNASE4-1, and shRNASE4-2. (C) Effect of RNASE4 knockdown on cell proliferation. Cell numbers were counted by a Coulter counter. Exogenous RNASE4, when presented, was at the concentration of 1 μg/ml. Data shown are from representative experiment (in triplicates) of 3 independent repeats. (D) Effects of RNASE4 knockdown on colonies formation and growth of PC-3 cells in soft agar. The same numbers of control and RNASE4 knockdown cells were seeded in soft agar, and grown in the absence or presence of 1 μg/ml of RNASE4 for 14 days. Colonies were counted and size measured on a Nikon Eclipse ti microscope. Left panels, representative images of colonies; scale bars=100 μm. Right panels, quantification of colony numbers and sizes. Data shown are means±SEM from five randomly selected fields per dish from a representative experiment. *P≤0.05, **P≤0.01, and ***P≤0.001, by two-tailed Student's t test.
Lentiviral mediated shRNA system (pGIPZ, Open Biosystems) was used to generate control and RNASE4 knockdown cell lines. […]

B1: RNASE4: recombinant human RNASE4 protein from pET11 expression in E. coli, purified by reversed-phase HPLC; added exogenously (protein, UniProt P34096 29-147, looked up)
Ribonuclease 4: QDGMYQRFLRQHVHPEETGGSDRYCNLMMQRRKMTLYHCKRFNTFIHEDIWNIRSICSTTNIQCKNGKMNCHEGVVKVTDCRDTGSSRAPNCRYRAIASTRRVVIACEGNPQVPVHFDG
[1]
  activation (phosphorylation) of AKT and S6: rapidly and continuously activated
[2]
  cell proliferation: stimulates
[3]
  rescue of the effect of RNASE4 knockdown on colony formation: able to rescue
